According to patent US12661385B2, “Modulation of mTORCI activity and autophagy via CIB2-RHEB interaction” (University of Maryland, Baltimore, priority 2018, dated 2026):

Tests used:
mTORC1 = experiment: Phosphoprotein immunoblots of LAM-621 cells overexpressing CIB2, mTORC1 targets; format: cell-based, human; settings: LAM-621 cells overexpressing increasing amounts of CIB2
RPE-J cells = experiment: Immunoblots for autophagy/lysosomal proteins in transfected RPE-J cells; format: cell-based, rat; settings: RPE-J cells over-expressing CIB2 vs GFP
Source text: FIG. 12. CIB2 mutant mice have less autophagy/lysosomal proteins, and overexpression of CIB2. in vitro, is sufficient to boost levels of autophagy/lysosomal proteins and clearance of opsin. a. […] Pro-cathepsin D levels were quantified from non-saturated exposures. c. Representative immunoblots for indicated autophagy/lysosomal proteins from RPE-J cells transiently transfected with GFP or CIB2-IRES-GFP. Endogenous CIB2 is observable in long exposure immunoblot, while transiently overexpressed CIB2 is readily observable in short exposure immunoblot. d. Quantification for immunoblots shown in (c). n=5 (LAMP-1) or 4 (ATG5-ATG12) independent transfection experiments. e, Schematic of the pulse-chase phagocytosis assay (left panel)—also see Examples below. […]
Complementary to the findings of Cib2 mutant mice, over-expressing CIB2 in RPE-J cells increased LAMP-1 and ATG5-ATG12 complex proteins levels (FIG. 12c-d). […] To test this idea, we assessed LC3-II flux. LC3-I is a cytosolic protein which when lipidated with a phosphatidylethanolamine adduct (LC3-II form) localizes to the growing auto/phagosome membrane, and thus can be used as a reliable readout for the dynamic autophagic process (Valapala et al., Autophagy 10, 480-496 (2014); Kim et al., Noncanonical Autophagy Promotes the Visual Cycle. Cell 154, 365-376 (2013); Klionsky et al., Autophagy 12, 1-222 (2016)). […]

Raptor = Raptor (Homo sapiens, UniProt Q8N122); experiment: Co-immunoprecipitation of Raptor and CIB2; format: binding; parameters: HA (N); mCherry (N); host or cells: HEK293
Chain of Raptor (Q8N122 whole entry): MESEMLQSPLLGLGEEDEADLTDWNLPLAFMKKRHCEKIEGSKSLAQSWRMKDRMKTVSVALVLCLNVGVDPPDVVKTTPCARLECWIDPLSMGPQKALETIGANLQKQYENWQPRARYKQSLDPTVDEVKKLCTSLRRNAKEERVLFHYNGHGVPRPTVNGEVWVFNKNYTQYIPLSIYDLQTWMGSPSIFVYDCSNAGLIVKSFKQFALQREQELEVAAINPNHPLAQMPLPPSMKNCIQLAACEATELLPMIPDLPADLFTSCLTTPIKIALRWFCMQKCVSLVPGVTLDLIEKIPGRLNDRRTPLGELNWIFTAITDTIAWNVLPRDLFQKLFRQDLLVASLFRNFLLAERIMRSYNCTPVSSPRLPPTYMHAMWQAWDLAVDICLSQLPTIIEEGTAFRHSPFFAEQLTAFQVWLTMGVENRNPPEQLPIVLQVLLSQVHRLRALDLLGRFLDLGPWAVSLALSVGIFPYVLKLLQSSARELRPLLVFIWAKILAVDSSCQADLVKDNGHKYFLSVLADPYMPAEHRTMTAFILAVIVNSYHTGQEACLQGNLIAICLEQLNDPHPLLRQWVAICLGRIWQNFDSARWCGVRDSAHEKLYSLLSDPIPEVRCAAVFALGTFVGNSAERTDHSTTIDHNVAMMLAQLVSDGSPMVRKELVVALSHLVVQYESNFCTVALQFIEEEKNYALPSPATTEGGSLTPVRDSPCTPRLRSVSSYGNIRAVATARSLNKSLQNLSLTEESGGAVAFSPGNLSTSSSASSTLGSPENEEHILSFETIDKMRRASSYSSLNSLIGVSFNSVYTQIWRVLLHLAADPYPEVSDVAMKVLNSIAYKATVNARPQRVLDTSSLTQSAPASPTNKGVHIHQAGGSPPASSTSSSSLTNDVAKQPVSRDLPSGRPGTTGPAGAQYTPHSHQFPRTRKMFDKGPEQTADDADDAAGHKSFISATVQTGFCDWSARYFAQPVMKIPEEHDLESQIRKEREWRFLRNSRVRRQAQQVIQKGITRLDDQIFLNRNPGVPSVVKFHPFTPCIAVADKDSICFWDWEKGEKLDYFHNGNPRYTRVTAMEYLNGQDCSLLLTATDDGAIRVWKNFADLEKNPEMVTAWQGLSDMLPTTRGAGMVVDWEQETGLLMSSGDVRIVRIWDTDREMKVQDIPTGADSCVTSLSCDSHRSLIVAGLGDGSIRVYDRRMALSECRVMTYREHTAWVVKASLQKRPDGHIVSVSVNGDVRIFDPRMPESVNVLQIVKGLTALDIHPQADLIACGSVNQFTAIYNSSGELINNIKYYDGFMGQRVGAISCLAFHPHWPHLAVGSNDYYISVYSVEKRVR
Source text: FIG. 14. […] Arrowheads indicate filopodia tip accumulation of hCIB2-eGFP, * indicates no accumulation of indicted constructs in the red channel. c. Representative confocal images (top panel) showing CIB2 (green) interaction with Rheb (red) and Raptor (red) using NanoTRAP assay. […] Arrowheads indicate filopodia tip accumulation of indicated constructs, * indicates no accumulation of indicted construct in the red or far-red channel. Scale bar: 10 μm. d. Quantification for nanoTRAP assay for images shown above. *** p<0.001 by one-way ANOVA. e, Co-IP experiments show interaction between Raptor and CIB2.
To reveal the molecular mechanism of CIB2-mediated mTORC1 modulation, we focused on the TSC-Rheb-mTORC1 axis. We performed an interaction screen of specific proteins including TSC1, TSC2, mTORC1-specific subunit Raptor, mTOR kinase, and Rheb. We used a recently-published quantitative interaction assay known as nanoscale pulldown 2.0 (NanoSPD), in which eGFP-nanobody tag fused to the myosin-HMM domain (nanoTRAP) preferentially migrates to the filopodia (Bird et al., Molecular Biology of the Cell 28, 463-475 (2017)). CIB2-eGFP (bait) migrated efficiently to filopodia in COS-7 cells only in the presence of the nanoTRAP. […] Many downstream and upstream targets of mTORC1 regulate its activity via binding to the mTORC1-specific subunit Raptor. […]

B1: CIB2: calcium and integrin binding protein 2, over-expressed in cells from plasmid constructs; SEQ ID NO:1 (human), SEQ ID NO:2 (mouse) (protein)
chain: MGNKQTIFTEEQLDNYQDCTFFNKKDILKLHARFYELAPNLVPMDYRKSPIVHVPMSLIIQMPELRENPFKERIVEAFSEDGEGNLTFNDFVDMFSVLCESAPRELKANYAFKIYDFNTDNFICKEDLEMTLARLTKSELEEDEVVLVCDKVIEEADLDGDGKLGFADFEDMIAKAPDFLSTFHIRI
modifications: left off: large carriers
mTORC1
  Phosphorylated 4E-BP-1: decreasing amounts
  Phosphorylated ULK1: decreasing amounts
RPE-J cells
  ATG5-ATG12 complex protein levels: increased
  LAMP-1 protein levels: increased
Raptor
  Interaction with Raptor (co-IP): confirmed the interaction
